Source: patent US20080003630

Target: GST-poly (Glu, Tyr) fusion protein
Sequence (chain, as listed by the source): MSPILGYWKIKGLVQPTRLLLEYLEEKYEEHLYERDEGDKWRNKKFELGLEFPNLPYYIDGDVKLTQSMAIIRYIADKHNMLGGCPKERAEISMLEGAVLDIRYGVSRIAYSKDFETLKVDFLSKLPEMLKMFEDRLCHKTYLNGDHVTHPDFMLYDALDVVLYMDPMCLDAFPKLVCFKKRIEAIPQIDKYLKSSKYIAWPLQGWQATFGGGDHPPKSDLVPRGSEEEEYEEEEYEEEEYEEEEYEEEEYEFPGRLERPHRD

Protein | phosphorylation of the substrate with ATP, Western blotting with Anti-Phosphotyrosine clone 4G10 | phosphorylation of the plate-bound substrate, ELISA with HRP-labeled p-Tyr (PY20) antibody, absorbance (650 nm)
PDGF Receptor β Kinase, intracellular domain (ICD) (protein) RYEIRWKVIESVSSDGHEYIYVDPMQLPYDSTWELPRDQLVLGRTLGSGAFGQVVEATAHGLSHSQATMKVAVKMLKSTARSSEKQALMSELKIMSHLGPHLNVVNLLGACTKGGPIYIITEYCRYGDLVDYLHRNKHTFLQHHSDKRRPPSAELYSNALPVGLPLPSHVSLTGESDGGYMDMSKDESVDYVPMLDMKGDVKYADIESSNYMAPYDNYVPSAPERTCRATLINESPVLSYMDLVGFSYQVANGMEFLASKNCVHRDLAARNVLICEGKLVKICDFGLARDIMRDSNYISKGSTFLPLKWMAPESIFNSLYTTLSDVWSFGILLWEIFTLGGTPYPELPMNEQFYNAIKRGYRMAQPAHASDEIYEIMQKCWEEKFEIRPPFSQLVLLLERLLGEGYKKKYQQVDEEFLRSDHPAILRSQARLPGFHGLRSPLDTSSVLYTAVQPNEGDNDYIIPLPDPKPEVADEGPLEGSPSLASSTLNEVNTSSTISCDSPLEPQDEPEPEPQLELQVEPEPELEQLPDSGCPAPRAEAEDSFL | In +of all of (i to vii) in FIG. 1, a single band was observed at a position where the phosphorylated GST-poly (Glu, Tyr) fusion protein appears | 
VEGF Receptor 1 Kinase, intracellular domain (ICD) (protein) RKMKRSSSEIKTDYLSIIMDPDEVPLDEQCERLPYDASKWEFARERLKLGKSLGRGAFGKVVQASAFGIKKSPTCRTVAVKMLKEGATASEYKALMTELKILTHIGHHLNVVNLLGACTKQGGPLMVIVEYCKYGNLSNYLKSKRDLFFLNKDAALHMEPKKEKMEPGLEQGKKPRLDSVTSSESFASSGFQEDKSLSDVEEEEDSDGFYKEPITMEDLISYSFQVARGMEFLSSRKCIHRDLAARNILLSENNVVKICDFGLARDIYKNPDYVRKGDTRLPLKWMAPESIFDKIYSTKSDVWSYGVLLWEIFSLGGSPYPGVQMDEDFCSRLREGMRMRAPEYSTPEIYQIMLDCWHRDPKERPRFAELVEKLGDLLQANVQQDGKDYIPINAILTGNSGFTYSTPAFSEDFFKESISAPKFNSGSSDDVRYVNAFKFMSLERIKTFEELLPNATSMFDDYQGDSSTLLASPMLKRFTWTDSKPKASLKIDLRVTSKSKESGLSDVSRPSFCHSSCGHVSEGKRRFTYDHAELERKIACCSPPPDYNSVVLYSTPPI | In +of all of (i to vii) in FIG. 1, a single band was observed at a position where the phosphorylated GST-poly (Glu, Tyr) fusion protein appears | 
ErbB4 Kinase, intracellular domain (ICD) (protein) RRKSIKKKRALRRFLETELVEPLTPSGTAPNQAQLRILKETELKRVKVLGSGAFGTVYKGIWVPEGETVKIPVAIKILNETTGPKANVEFMDEALIMASMDHPHLVRLLGVCLSPTIQLVTQLMPHGCLLEYVHEHKDNIGSQLLLNWCVQIAKGMMYLEERRLVHRDLAARNVLVKSPNHVKITDFGLARLLEGDEKEYNADGGKMPIKWMALECIHYRKFTHQSDVWSYGVTIWELMTFGGKPYDGIPTREIPDLLEKGERLPQPPICTIDVYMVMVKCWMIDADSRPKFKELAAEFSRMARDPQRYLVIQGDDRMKLPSPNDSKFFQNLLDEEDLEDMMDAEEYLVPQAFNIPPPIYTSRARIDSNRSEIGHSPPPAYTPMSGNQFVYRDGGFAAEQGVSVPYRAPTSTIPEAPVAQGATAEIFDDSCCNGTLRKPVAPHVQEDSSTQRYSADPTVFAPERSPRGELDEEGYMTPMRDKPKQEYLNPVEENPFVSRRKNGDLQALDNPEYHNASNGPPKAEDEYVNEPLYLNTFANTLGKAEYLKNNILSMPEKAKKAFDNPDYWNHSLPPRSTLQHPDYLQEYSTKYFYKQNGRIRPIVAENPEYLSEFSLKPGTVLPPPPYRHRNTVV | In +of all of (i to vii) in FIG. 1, a single band was observed at a position where the phosphorylated GST-poly (Glu, Tyr) fusion protein appears | 
IGF-1 Receptor Kinase, intracellular domain (ICD) (protein) RKRNNSRLGNGVLYASVNPEYFSAADVYVPDEWEVAREKITMSRELGQGSFGMVYEGVAKGVVKDEPETRVAIKTVNEAASMRERIEFLNEASVMKEFNCHHVVRLLGVVSQGQPTLVIMELMTRGDLKSYLRSLRPEMENNPVLAPPSLSKMIQMAGEIADGMAYLNANKFVHRDLAARNCMVAEDFTVKIGDFGMTRDIYETDYYRKGGKGLLPVRWMSPESLKDGVFTTYSDVWSFGVVLWEIATLAEQPYQGLSNEQVLRFVMEGGLLDKPDNCPDMLFELMRMCWQYNPKMRPSFLEIISSIKEEMEPGFREVSFYYSEENKLPEPEELDLEPENMESVPLDPSASSSSLPLPDRHSGHKAENGPGPGVLVLRASFDERQPYAHMNGGRKNERALPLPQSSTC | In +of all of (i to vii) in FIG. 1, a single band was observed at a position where the phosphorylated GST-poly (Glu, Tyr) fusion protein appears | In either case of HER1 and IGF1R, as the tyrosine kinase amount increased, a measured value was increased
